Results published in publication PMC8213813, “Mechanism of genome instability mediated by human DNA polymerase mu misincorporation”.

What was measured:
[1] = target: T1, DNA polymerase mu core domain K438A/Q441A (Homo sapiens, UniProt Q9NP87 136-494, K438A;Q441A;del398-410); experiment: X-ray crystallography; dGMPNPP, 10 mM Mg2+ (Complex 5); Crystals: protein (~7 mg/ml in 25 mM Tris/HCl pH 7.5, 100 mM KCl, 1 mM DTT) with DNA at 1:1.5; binary: 0.1 M sodium citrate pH 5.5, 18% 2-propanol, PEG4000; ternary: pH 6.5-8.0, PEG3350 or PEG10000; nucleotide/metal soak 4 h at 4 °C; settings: protein: recombinant; tags: His (pET28a, nickel purified); template 9 nt + upstream primer 4 nt + downstream primer 4 nt; 1-nt gap; blunt outer ends
T1 sequence (Q9NP87 other isoform, or with tags, fused parts or gaps K438A;Q441A;del398-410 | K438A Q441A K438A Q441A): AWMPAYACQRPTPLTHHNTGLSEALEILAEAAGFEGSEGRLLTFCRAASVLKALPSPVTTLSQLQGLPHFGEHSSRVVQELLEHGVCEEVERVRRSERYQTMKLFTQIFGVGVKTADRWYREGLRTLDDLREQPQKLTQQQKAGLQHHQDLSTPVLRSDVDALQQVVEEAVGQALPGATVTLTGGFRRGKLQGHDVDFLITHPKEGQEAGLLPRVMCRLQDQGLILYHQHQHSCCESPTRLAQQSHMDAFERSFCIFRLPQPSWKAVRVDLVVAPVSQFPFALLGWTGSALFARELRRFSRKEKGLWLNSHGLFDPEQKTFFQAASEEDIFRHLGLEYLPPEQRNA

[2] = target: DNA polymerase mu core domain Q441A (Homo sapiens, UniProt Q9NP87 136-494, Q441A;del398-410); experiment: X-ray crystallography; dGMPNPP, 10 mM Mg2+ (Complex 4); Crystals: protein (~7 mg/ml in 25 mM Tris/HCl pH 7.5, 100 mM KCl, 1 mM DTT) with DNA at 1:1.5; binary: 0.1 M sodium citrate pH 5.5, 18% 2-propanol, PEG4000; ternary: pH 6.5-8.0, PEG3350 or PEG10000; nucleotide/metal soak 4 h at 4 °C; settings: protein: recombinant; tags: His (pET28a, nickel purified); template 9 nt + upstream primer 4 nt + downstream primer 4 nt; 1-nt gap; blunt outer ends
Chain of DNA polymerase mu core domain Q441A (Q9NP87 other isoform, or with tags, fused parts or gaps Q441A;del398-410 | Q441A Q441A): as the sequence (Q9NP87 other isoform, or with tags, fused parts or gaps K438A;Q441A;del398-410 | K438A Q441A K438A Q441A) above, with A290K counted along it

[3] = target: T2, DNA polymerase mu core domain (WT) (Homo sapiens, UniProt Q9NP87 136-494, del398-410); experiment: X-ray crystallography; binary; Mg2+; Crystals: protein (~7 mg/ml in 25 mM Tris/HCl pH 7.5, 100 mM KCl, 1 mM DTT) with DNA at 1:1.5; binary: 0.1 M sodium citrate pH 5.5, 18% 2-propanol, PEG4000; ternary: pH 6.5-8.0, PEG3350 or PEG10000; nucleotide/metal soak 4 h at 4 °C; settings: protein: recombinant; tags: His (pET28a, nickel purified); template 9 nt + upstream primer 4 nt + downstream primer 4 nt; 1-nt gap; blunt outer ends
T2 sequence (Q9NP87 other isoform, or with tags, fused parts or gaps del398-410): as the sequence (Q9NP87 other isoform, or with tags, fused parts or gaps K438A;Q441A;del398-410 | K438A Q441A K438A Q441A) above, with A290K, A293Q counted along it

[4] = target: T1, DNA polymerase mu core domain …; experiment: X-ray crystallography; post-insertion; second dGTP (10 mM soak), 10 mM Mg2+, Na+; Crystals: protein (~7 mg/ml in 25 mM Tris/HCl pH 7.5, 100 mM KCl, 1 mM DTT) with DNA at 1:1.5; binary: 0.1 M sodium citrate pH 5.5, 18% 2-propanol, PEG4000; ternary: pH 6.5-8.0, PEG3350 or PEG10000; nucleotide/metal soak 4 h at 4 °C; settings: protein: recombinant; tags: His (pET28a, nickel purified); template 9 nt + extended primer 5 nt + downstream primer 4 nt; nascent dG displaced by second dGTP
[5] = target: T2, DNA polymerase mu core domain (WT); experiment: X-ray crystallography; dGMPNPP, 10 mM Mg2+ (Complex 1); Crystals: protein (~7 mg/ml in 25 mM Tris/HCl pH 7.5, 100 mM KCl, 1 mM DTT) with DNA at 1:1.5; binary: 0.1 M sodium citrate pH 5.5, 18% 2-propanol, PEG4000; ternary: pH 6.5-8.0, PEG3350 or PEG10000; nucleotide/metal soak 4 h at 4 °C; settings: protein: recombinant; tags: His (pET28a, nickel purified); template 10 nt + upstream primer 4 nt + downstream primer 4 nt; 2-nt gap; blunt outer ends

B1: 1-nt gapped DNA, templating T (crystallization) (dsDNA)
DNA 1: CGGCTTACG
DNA 2: CGTA
DNA 3: GCCG
modifications: 5'-phosphate on downstream primer
- binding result [1]: binds
- binding result [2]: binds
- binding result [3]: binds

B2: 1-nt gapped DNA after dGTP insertion (T:G product) (dsDNA)
DNA 1: CGGCTTACG
DNA 2: CGTAG
DNA 3: GCCG
modifications: 5'-phosphate on downstream primer
- binding result [4]: binds

B3: 2-nt gapped DNA, templating TT (crystallization) (dsDNA)
DNA 1: CGGCTTTACG
DNA 2: CGTA
DNA 3: GCCG
modifications: 5'-phosphate on downstream primer
- binding result [5]: binds
